Measured values published in article PMC2671166, “Site Directed Mutagenesis of Amino Acid Residues at the Active Site of Mouse Aldehyde Oxidase AOX1” (PLoS ONE, 2009).

Biological target: the molecule itself
Experiment: SEC; purified mAOX1; single peak with an approximate molecular mass of 300 kDa; data not shown

B1: Mouse aldehyde oxidase AOX1 (recombinant, wild-type) (enzyme, UniProt O54754 1-1333, looked up)
chain: MDPIQLLFYVNGQKVVEKNVDPEMMLLPYLRKNLRLTGTKYGCGGGGCGACTVMISRYNPSTKAIRHHPVNACLTPICSLHGTAVTTVEGLGNTRTRLHPIQERIAKCHGTQCGFCTPGMVMSMYALLRNHPEPTLDQLTDALGGNLCRCTGYRPIIDACKTFCKASACCQSKENGVCCLDQEINGLAESQEEDKTSPELFSEEEFLPLDPTQELIFPPELMRIAEKQPPKTRVFYGERVTWISPVTLKELVEAKFKYPQAPIVMGYTSVGPEVKFKGVFHPIIISPDRIEELGVISQARDGLTLGAGLSLDQVKDILADIVQKLPEEKTQTYRALLKHLRTLAGSQIRNMASLGGHIVSRHLDSDLNPLLAVGNCTLNLLSKDGERRIPLSEEFLRKCPEADLKPQEVLVSVNIPWSRKWEFVSAFRQAQRQQNALAIVNSGMRVLFREGGGVIEELSILYGGVGSTIISAKNSCQRLIGRPWNEGMLDTRCRLVLDEVTLAASAPGGKVEFKRTLIISFLFKFYLEVSQGLKREDPGHSPSLAGNHESALDDLHSKHPWRTLTHQNVDPAQLPQDPIGRPIMHLSGIKHATGEAIYCDDMPAVDRELFLTFVTSSRAHAKIVSIDLSEALSLPGVVDIITADHLQEANTFGTETFLATDEVHCVGHLVCAVIADSETRAKQAAKQVKVVYQDLAPLILTIEEAIQHKSFFKSERKLECGNVDEAFKIVDQILEGEIHIGGQEHFYMETQSMLVVPKGEDGEIDIYVSTQFPKYIQDIVAATLKLSANKVMCHVRRVGGAFGGKVGKTSILAAITAFAASKHGRAVRCILERGEDMLITGGRHPYLGKYKAGFMNEGRILALDVEHYCNGGCSLDESLWVIEMGLLKLDNAYKFPNLRCRGWACRTNLPSNTALRGFGFPQAGLVTEACITEVAIKCGLSPEQVRTINMYKHVDTTHYKQEFSAKALSECWRECMAKCSYFERKAAIGKFNAENSWKKRGMAVIPLKFPVGIGSVAMGQAAALVHIYLDGSALVSHGGIEMGQGVHTKMIQVVSRELRMPMSSVHLRGTSTETVPNTNASGGSVVADLNGLAVKDACQTLLKRLEPIISKNPQGTWKDWAQTAFDQSISLSAVGYFRGYESNIDWEKGEGHPFEYFVFGAACSEVEINCLTGDHKNIRTNIVMDVGHSINPALDIGQVEGAFIQGMGLYTIEELSYSPQGTLYSRGPNQYKIPAICDIPTEMHISFLPPSEHSNTLYSSKGLGESGVFLGCSVFFAIHDAVKAARQERGISGPWKLNSPLTPEKIRMACEDKFTKMIPRDEPGSYVPCNIPV
notes: mouse aldehyde oxidase AOX1, cDNA cloned from mouse CD1 liver into the NdeI-SalI sites of pTrcHis (plasmid pSL205); band of 150 kDa on SDS-PAGE; Holds Moco, two [2Fe-2S] clusters and FAD as cofactors; also called mAOX1; mAOX1-WT; source: E. coli TP1000, coexpressed with mMCSF, purified (Ni-NTA, Superose 12, benzamidine sepharose)
- stoichiometry N: 2
